Source: paper doi:10.1101/419721 (bioRxiv, 2018)
No end group written: not given here.

T1: PDZ domain of SYNJ2BP (MBP-PDZ) (human, UniProt P57105 13-100)
T1 sequence: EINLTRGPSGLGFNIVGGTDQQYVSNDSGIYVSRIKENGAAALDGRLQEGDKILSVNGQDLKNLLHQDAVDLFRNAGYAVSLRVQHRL

T2: PDZ domain of ARHGEF12 (MBP-PDZ) (human, UniProt Q9NZN5 72-151)
T2 sequence: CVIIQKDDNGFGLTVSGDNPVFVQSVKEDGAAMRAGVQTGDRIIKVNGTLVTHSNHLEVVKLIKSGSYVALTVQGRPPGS

B1: unphosphorylated RSK1 683-735 peptide (peptide)
peptide: QSQLSHQDLQLVKGAMAATYSALNSSKPTPQLKPIESSILAQRRVRKLPSTTL
B2: phosphorylated RSK1 683-735 peptide (peptide)
peptide: B1 peptide
modifications: also: phosphorylated, sites not given here

How the values were obtained:
[1] = molecular target: T1, PDZ domain of SYNJ2BP (MBP-PDZ); test: ITC
[2] = molecular target: T2, PDZ domain of ARHGEF12 (MBP-PDZ); test: ITC

Binder | binding result [1] | binding result [2]
B1 | binds | binds
B2 | binds | 
